Assay results reported in US12007398.
Values belong to the binder of their own block, whether it stands above or below them.

Experiments:
[1] = biological target: T1, CD3e subunit of the T cell receptor on human T cells (human, UniProt P07766 23-207); assay: cell-based or functional assay
[2] = biological target: T1, CD3e subunit of the T cell receptor on …; assay: cell-based or functional assay; remark: listed apart in the source

T1 sequence (P07766 23-207): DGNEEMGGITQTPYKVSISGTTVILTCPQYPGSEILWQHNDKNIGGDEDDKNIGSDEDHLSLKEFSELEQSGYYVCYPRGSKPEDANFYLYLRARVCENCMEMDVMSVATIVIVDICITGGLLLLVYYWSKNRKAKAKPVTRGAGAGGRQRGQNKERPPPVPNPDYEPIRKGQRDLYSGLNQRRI

EC50 of NFκB-luciferase reporter activation, Jurkat/NFκBLuc cells; in absence of target cells [1]: 0.21 µg/mL | EC50 of T cell activation (CD69+/CD25+), human PBMC Donor 1; column head: in absence of target cells [1]: 0.526 µg/mL | EC50 of T cell activation (CD69+/CD25+), human PBMC Donor 2; column head: in absence of target cells [1]: 0.169 µg/mL
B1: purified anti-CD3 homodimer (product-related impurity isolated from the αCD20/αCD3 TDB purification process) (antibody, V domains shown)
VH: EVQLVQSGAEVKKPGASVKVSCKASGYTFTNYYIHWVRQAPGQGLEWIGWIYPGDGNTKYNEKFKGRATLTADTSTSTAYLELSSLRSEDTAVYYCARDSYSNYYFDYWGQGTLVTVSS
VL: DIVMTQSPDSLAVSLGERATINCKSSQSLLNSRTRKNYLAWYQQKPGQPPKLLIYWASTRESGVPDRFSGSGSGTDFTLTISSLQAEDVAVYYCTQSFILRTFGQGTKVEIK

EC50 of NFκB-luciferase reporter activation, Jurkat/NFκBLuc cells; in presence of target cells [1]: 0.0013 µg/mL | EC50 of T cell activation (CD69+/CD25+), human PBMC Donor 1; in presence of target cells [1]: 0.0055 µg/mL | EC50 of T cell activation (CD69+/CD25+), human PBMC Donor 2; in presence of target cells [1]: 0.0044 µg/mL | luciferase activity of Jurkat/NFκBLuciferase clone 2 in the presence of a CD20 expressing target cell line, relative to anti-CD3 homodimer [2]: 1000 fold
B2: αCD20/αCD3 TDB (T cell dependent bispecific antibody; anti-CD20 Mab2 / anti-CD3 Mab1) (bispecific antibody, V domains shown)
VH 1: EVQLVESGGGLVQPGGSLRLSCAASGYTFTSYNMHWVRQAPGKGLEWVGAIYPGNGDTSYNQKFKGRFTISVDKSKNTLYLQMNSLRAEDTAVYYCARVVYYSNSYWYFDVWGQGTLVTVSS
VL 1: DIQMTQSPSSLSASVGDRVTITCRASSSVSYMHWYQQKPGKAPKPLIYAPSNLASGVPSRFSGSGSGTDFTLTISSLQPEDFATYYCQQWSFNPPTFGQGTKVEIKR
VH 2: B1 VH
VL 2: B1 VL
